This data set addresses SARS-CoV-2 spike RBD (Wuhan-Hu-1), His-tagged (SARS-CoV-2 (Wuhan-Hu-1 strain), UniProt P0DTC2 319-541). In words: BLI; 3 mM MgCl2; 10 mM phosphate pH 7.4, 137 mM NaCl, 2.7 mM KCl, 3 mM MgCl2, 0.01% BSA, 0.002% Tween 20, 25 °C; aptamer 175-1400 nM, n=2. As to conditions: protein: commercial; tags: His. In general terms: In BLI a coated tip is dipped into the sample, and binding shifts an interference pattern.
The Kd is a measure of binding affinity in units of concentration. As to GCUGGUGCUGCAGCUUAUUAUGUGGGUUAUCUUCAACCUA (structured_RNA) [Aptamer 22], the Kd was determined as 5450 ± 1700 nM.
In turn, GAUGGUAAUGCUGCUAUCAGCGAUUAUGACUACUAUCGUU (structured_RNA) [Aptamer 62] showed a dissociation constant Kd of 285 ± 141 nM.
For GUUUCGGAAGAGACAGGUACGUUAAUAGUUAAUAGCGUAC (structured_RNA) [Aptamer 40], the Kd amounted to 571 ± 173 nM.
The same measure for CACUACCAAGAGUGUGUUAGAGGUACAACAGUACUUUUAA (structured_RNA) [Aptamer 23]: 29300 ± 10400 nM.
For the molecule GAUUUUAGUCAUAGUCAGUUAGGUGGUUUACAUCUACUGA (structured_RNA) [Aptamer 11], the Kd was 425 ± 146 nM.

Source of the values: paper PMC12191217, “Aptamer Development for SARS-CoV-2 and Omicron Variants Using the Spike Protein Receptor Binding Domain as a Potential Diagnostic Tool and Therapeutic Agent”.
